Substitutions are numbered along the chain they refer to. In names and notes the source's numbering stands.
B1: 63-C5A5, IgG4, Kappa (antibody, V domains shown)
VH: EVNLEESGGGLVQPGGSMEFSCVASGLTFSDHWMNWVRQSPEKGLEWVAQIQLKSDNYAIRYVESVKGRFSISRDDSKSSVYLQMNNLRAEDSGIYYCTTGTDYWGQGTTLTVSS
VL: not shown
B2: 74-H4C6 (4451), IgG1, Kappa (antibody, V domains shown)
VH: EVQLQQSGPELVKPGASVKISCKASGYDFTGYHMNWVKQSPEKSLEWIGEINPITSDKTFNQKFKSKATLTVDRSSSTAYMYLKSLTSEDSAVYYCARRDYGTSLDYWGQGTTLTVSS
VL: DVQITQSPSYLAASPGETITIYCRASKSISKYLAWYQEKPEKTNRLLIYAGSTLHSGIPSRFRGSGSGKDFTLTVSGLEPEDFAMYYCQQHNEYPITFGAGTKLELK
B3: 69-D5G10, IgG4, Kappa (antibody, V domains shown)
VH: EVKLEESGGGLVQPGGSMKLSCVVSGLTFSNHWMNWVRQSPEKGLEWVAQIQLKSDNYATRFAESVKGRFTISRDDSKSDVYLQMNNLRTEDTGIYYCTTGTDYWGQGTTLTVSS
VL: not shown
B4: 76-F8C6, IgG1, Kappa (antibody, V domains shown)
VH: EVKLEESGGGLVQPGGSMKLSCVASGFTFTNSWMNWVRQSPERGLDWVAQIQLKSDNYATRYVESVKGRFTISRDDSKNSVYLQMNNLRAEDTGIYYCTTGTDYWSQGTTLTVSS
VL: not shown
B5: 59-G9D7, IgG1, Kappa (antibody, V domains shown)
VH: QVQLQQPGADLVKPGASVKLSCKASGYTVTTYWMHWVRQRPGRGLEWIGRIDPNSGETKYSEKFKNKATLTVDRPSSTAYMQLSSLTFEDSAVYFCAIYYYLNNFLFDYWGQGTTLTVSS
VL: ENVLTQSPAIMSASPGEKVTMTCRASSSVSSSYLHWYQKKSGASPKLWIYSTSNLASGVPARFSGSGSGTSYSLTISSVEAEDAATYYCQQYSGYPLTFGAGTKLELK
B6: 62-F7E9, IgG1, Kappa (antibody, V domains shown)
VH: QVQLQQPGAELVKPGASVKLSCKASGYTSTSYWLHWVKQRPGRGLEWIGRIDPNSGETKFNEKFKSQATLTVDKPSSTAYMQLNSLTSEDSAVYYCALYYYGSILFDYWGQGTTLTVSS
VL: B5 VL with A25T, S28I, V29I, S32G, Y33F, K39Q, Y95H
B7: 45-H1E4, IgG1, Kappa (antibody, V domains shown)
VH: QIQLVQSGPELKKPGETVKISCKASGYTFTTYGMSWMKQAPGKGLKWMGWINTYSGVPAYADDFKGRFAFSLDTSASTAYLQINNLKNEDTATYFCARSGYPWSPHSYSTDYWGQGISVTVSS
VL: DVLLTQTPLSLPVSLGDQASISCKSSQSIVHSNGNTYLEWYLQKPGQSPKRLIYKVSNRFSGVPDRFSGSGSGTDFTLKISRVEAEDLGVYYCFQGSHVPWTFGGGTKLEIK
B8: 63-C5A5, IgG1, Kappa (antibody, V domains shown)
VH: B1 VH
VL: not shown
B9: 69-D5G10, IgG1, Kappa (antibody, V domains shown)
VH: B3 VH
VL: not shown
B10: 80-F10A6, IgG4, Kappa (antibody, V domains shown)
VH: EVQLQQSGPVLVNPGASVKISCKASGYSFTGYYMNWVKQSPEKSLEWIGEVNPITGDTTYSQNFKAKTTLTVDRSSSTAYMQLKSLTSEDSAVYYCTRRDYGTSLDYWGQGTTLTVSS
VL: DVQITQSPSYLAASPGETITIHCRASKSISRYLAWYQEKPGKINTLLIYAGSTLHLGIPSRFSGSGSGTDFTLTISSLELEDFAMYYCQQHNEYPITFGAGTKLELK
B11: Antibody No 1, lead clone of 4451H (HC N35G; LC K27A, T97I) (antibody, V domains shown)
VH: QVQLVQSGAEVKKPGASVKVSCKASGYDFTGYHMGWVRQAPGQGLEWMGEINPITSDKTFNQKFKSRVTMTRDTSISTAYMELSRLRSDDTAVYYCARRDYGTSLDYWGQGTTVTVSS
VL: DIQLTQSPSFLSASVGDRVTITCRASASISKYLAWYQQKPGKAPKLLIYAGSTLHSGIPSRFRGSGSGTEFTLTISSLQPEDFATYYCQQHNEYPIIFGQGTKLEIK
B12: Antibody No 2, lead clone of 4451H (HC N35G; LC S30K, T97I) (antibody, V domains shown)
VH: B11 VH
VL: B11 VL with A27K, S30K
B13: Antibody No 3, lead clone of 4451H (HC N35G; LC L33G, T97I) (antibody, V domains shown)
VH: B11 VH
VL: B11 VL with A27K, L33G

Key:
human CD24 on cells = target: T1, human CD24 on cells (human, UniProt P25063 27-59); test: cell-based or functional assay
T1 chain (looked up): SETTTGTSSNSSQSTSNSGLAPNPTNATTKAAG

Human CD24 [1] = target: T2, Human CD24 (human, UniProt P25063 27-59, limits assumed); test: SPR affinity ranking, 1:1 binding, analyte conc. 19.71 nM
T2 chain (looked up): T1 chain (looked up)

Human CD24 [2] = target: T2, Human CD24; test: SPR, second 1:1 binding column set

| Binder | EC50 of Phagocytosis assay, IgG1, Kappa; HEK293-CD24 (human CD24 on cells) [µg/mL] | EC50 of Phagocytosis assay, IgG1, Kappa; MCF-7 (human CD24 on cells) [µg/mL] | EC50 of Phagocytosis assay, IgG1, Kappa; NALM6 (human CD24 on cells) [µg/mL] | EC50 of Phagocytosis assay, IgG1, Kappa; OVCAR3 (human CD24 on cells) [µg/mL] | other results |
| --- | --- | --- | --- | --- | --- |
| B1 |  |  |  |  | EC50 of Phagocytosis assay, IgG4, Kappa; HEK293-CD24 (human CD24 on cells): 0.46 µg/mL; EC50 of Phagocytosis assay, IgG4, Kappa; MCF-7 (human CD24 on cells): 24.7 µg/mL; EC50 of Phagocytosis assay, IgG4, Kappa; NALM6 (human CD24 on cells): 6.58 µg/mL; EC50 of Phagocytosis assay, IgG4, Kappa; OVCAR3 (human CD24 on cells): 1.62 µg/mL |
| B2 | 0.05 | 0.28 | 0.19 | 0.1 |  |
| B3 |  |  |  |  | EC50 of Phagocytosis assay, IgG4, Kappa; HEK293-CD24 (human CD24 on cells): 0.37 µg/mL; EC50 of Phagocytosis assay, IgG4, Kappa; MCF-7 (human CD24 on cells): 1.02 µg/mL; EC50 of Phagocytosis assay, IgG4, Kappa; NALM6 (human CD24 on cells): 0.55 µg/mL; EC50 of Phagocytosis assay, IgG4, Kappa; OVCAR3 (human CD24 on cells): 0.51 µg/mL |
| B4 | 0.09 | 0.47 | 0.42 | 0.17 |  |
| B5 | 4.76 | 2.05 | 7.9 | 0.97 |  |
| B6 | 5.15 | 2.08 | 8.62 | 1.63 |  |
| B7 | 0.29 | 1.02 | 1.25 | 0.59 |  |
| B8 | 0.4 | 0.74 | 0.7 | 8.48 |  |
| B9 | 0.22 | 0.42 | 0.43 | 8.44 |  |
| B10 |  |  |  |  | EC50 of Phagocytosis assay, IgG4, Kappa; HEK293-CD24 (human CD24 on cells): 0.86 µg/mL; EC50 of Phagocytosis assay, IgG4, Kappa; MCF-7 (human CD24 on cells): 2.4 µg/mL; EC50 of Phagocytosis assay, IgG4, Kappa; NALM6 (human CD24 on cells): 1.05 µg/mL; EC50 of Phagocytosis assay, IgG4, Kappa; OVCAR3 (human CD24 on cells): 0.37 µg/mL |
| B11 |  |  |  |  | Kd (Human CD24 [1]): 10.5 nM; koff (Human CD24 [1]): 0.0132 s⁻¹; kon (Human CD24 [1]): 1.26e+06 M⁻¹ s⁻¹ |
| B12 |  |  |  |  | Kd (Human CD24 [1]): 8.78 nM; koff (Human CD24 [1]): 0.0249 s⁻¹; kon (Human CD24 [1]): 2.83e+06 M⁻¹ s⁻¹ |
| B13 |  |  |  |  | Kd (Human CD24 [1]): 7.09 nM; koff (Human CD24 [1]): 0.00827 s⁻¹; kon (Human CD24 [1]): 1.17e+06 M⁻¹ s⁻¹; Kd (Human CD24 [2]): 4.6 nM; koff (Human CD24 [2]): 0.00766 s⁻¹; kon (Human CD24 [2]): 1.66e+06 M⁻¹ s⁻¹ |
